# Laboratory results published in article PMC8960874.
# Target: Clone 16 (Clone 6-KiH-Clone 2) bispecific antibody (mouse | human) [IgG part: P01857]
# Test: SPR
# Conditions: domain or fragment
substance,measurement,value
SARS-CoV-2 spike receptor binding domain (RBD) protein with a C-terminal hexahistidine tag (from UniProt P0DTC2 319-541),Kd,2.95 nM
same,koff,0.00461 s⁻¹
